Results from patent US8106168B2, “Metalloproteinase binding proteins” (Dyax Corp., priority 2005, dated 2012).

T1: MMP-7 (Homo sapiens, UniProt P09237)
T1 sequence (P09237 95-267): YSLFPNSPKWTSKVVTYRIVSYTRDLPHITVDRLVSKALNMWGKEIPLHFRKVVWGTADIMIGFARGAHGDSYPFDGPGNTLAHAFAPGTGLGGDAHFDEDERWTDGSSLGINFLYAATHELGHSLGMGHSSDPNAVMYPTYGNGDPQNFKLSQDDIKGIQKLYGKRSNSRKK


Key:
[1] = system: Human umbilical vascular endothelium cells (HUVECs); test: HUVEC tube formation on […]; assay type: cell-based; settings: 1 nM to 250 nM; 18 hours
Protocol: Human umbilical vascular endothelium cells (HUVECs) were seeded into […]™ basement membrane extract-coated 96 well plates at 20,000 or 40,000 cells in 100 μl/well. The seeded cells were incubated for 30 minutes, then the various test articles were added (vehicle control, M0038-F01 at concentrations ranging from 1 nM to 250 nM, or suramin 8 mg/ml). The cells were incubated at 37° for 18 hours. 100 μl of calcein solution (8 μg/ml) was added 20 minutes prior to image capture. Tube lengths were also quantified.

B16F1 melanoma tumors = test: B16F1 melanoma subcutaneous tumor growth; assay type: in vivo, mouse; settings: M0038-F01 10, 1 or 0.1 mg/kg Q2d IP; doxorubicin 5 mg/kg weekly IP
Text: B16F1 melanoma cells were implanted into Female C57/BL6 (CR) mice (4-6 Weeks old) mice by subcutaneous injection.

[2] = system: B16F1 melanoma lung metastases; test: B16F1 melanoma metastasis model, tail vein injection; assay type: in vivo, mouse; settings: 10 mg/kg Q2d IP, 14 days; lungs taken day 15
Protocol: MMP-14 binding antibodies were also tested in a model of melanoma metastasis. B16F1 cells were grown in culture, harvested at 85% confluence and inoculated at 5×10^5 cells/mouse in 100 μl saline by tail vein injection. Treatment started on Day 1, post inoculation, for 14 days. […] On day 15, animals were sacrificed and lungs taken, fixed, and analyzed for the number of metastases (nodules).

PC3 prostate tumors = test: PC3 prostate tumor growth; assay type: in vivo, mouse; settings: M0038-F01 10, 1 or 0.1 mg/kg Q2d IP; taxotere 10 mg/kg weekly IP; A2 10 mg/kg Q2d
Text: PC3 prostate cancer cells were implanted into male nude mice by subcutaneous injection.

MMP-3 = MMP-3 (Homo sapiens, UniProt P08254); test: Cross-reactivity of anti-MMP-14 IgGs, enzymatic activity: MMP-3; assay type: biochemical; settings: 1 μM anti-MMP-14 IgG
Chain of MMP-3 (P08254 100-477): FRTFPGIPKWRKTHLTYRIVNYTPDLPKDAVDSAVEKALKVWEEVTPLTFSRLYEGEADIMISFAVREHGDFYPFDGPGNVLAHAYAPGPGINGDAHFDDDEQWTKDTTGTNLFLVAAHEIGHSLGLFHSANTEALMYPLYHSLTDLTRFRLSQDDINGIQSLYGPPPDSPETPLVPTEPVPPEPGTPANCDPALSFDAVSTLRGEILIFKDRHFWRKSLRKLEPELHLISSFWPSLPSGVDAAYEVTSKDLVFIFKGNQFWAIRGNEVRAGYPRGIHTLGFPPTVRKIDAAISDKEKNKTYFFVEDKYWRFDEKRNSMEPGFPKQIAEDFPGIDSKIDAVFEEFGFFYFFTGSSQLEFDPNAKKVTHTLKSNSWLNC
Protocol: (§1) The cross-reactivity of exemplary anti-MMP-14 IgGs and Fabs with other human MMPs and TACE (TNF-alpha converting enzyme) was examined. MMP and TACE enzymatic activity was monitored in the absence and presence of 1 μM anti-MMP-14 IgG antibody. Inhibition (Y) of activity ranged from approximately 50-80% of the reaction rate observed in the absence of antibody. “X” indicates no inhibition was observed. Cross-reactivity was not determined for MMP-17 because protein activity could not be detected.
(§2) For the studies summarized in Table 12, six anti-MMP-14 IgGs were selected for cross-reactivity testings: M0043-G02, M0040-A06, M0037-D01, M037-C09, M0038-F01, M0033-H07.

MMP-7 = target: T1, MMP-7; test: Cross-reactivity of anti-MMP-14 IgGs, enzymatic activity: MMP-7; assay type: biochemical; settings: 1 μM anti-MMP-14 IgG
Protocol: as §1, §2

Molecule | tube formation [1] | tumor growth (B16F1 melanoma tumors) | number of lung melanoma tumors (nodules) [2] | tumor growth (tumor volume) (PC3 prostate tumors) | Cross reactivity: inhibition of MMP-3 activity (MMP-3) | Cross reactivity: inhibition of MMP-7 activity (MMP-7)
M0038-F01: human antibody (Fab, IgG) that binds and inhibits MMP-14; HC SEQ ID NO: 156, LC SEQ ID NO: 157 (antibody, V domains shown, Synthetically generated peptide) VH: EVQLLESGGGLVQPGGSLRLSCAASGFTFSLYSMNWVRQAPGKGLEWVSSIYSSGGSTLYADSVKGRFTISRDNSKNTLYLQMNSLRAEDTAVYYCARGRAFDIWGQGTMVTVSS VL: QDIQMTQSPSSLSAFVGDKVTITCRASQSVGTYLNWYQQKAGKAPELLIYATSNLRSGVPSRFSGSGSGTDFTLTINTLQPEDFATYYCQQSYSIPRFTFGPGTKVDIK | dose-dependently inhibits tube formation | effective in reducing tumor growth | substantially reduced the number of lung melanoma tumors | reduced in all M0038-F01 treated animals, with the 10 mg/kg dose being most effective, followed by the 1 mg/kg and 0.1 mg/kg doses |  | 
M0040-A06: human antibody (Fab, IgG) that binds and inhibits MMP-14; HC SEQ ID NO: 162, LC SEQ ID NO: 163 (antibody, V domains shown, Synthetically generated peptide) VH: EVQLLESGGGLVQPGGSLRLSCAASGFTFSYYGMYWVRQAPGKGLEWVSSISSSGGYTDYADSVKGRFTISRDNSKNTLYLQMNSLRAEDTAVYYCARRIKYYDIEGEGAFDIWGQGTMVTVSS VL: QDIVMTQTPPSLPVNPGEPASISCRSSQSLLHRNGYNYLDWYLQKPGQSPQLLIHLGSYRASGVPDRFSGSGSGTDFTLKISRVEAEDVGVYYCMQPLQTPFTFGPGTKVDIK |  |  |  |  | Y (Inhibition (Y) of activity ranged from approximately 50-80% of the reaction rate observed in the absence of antibody) | Y (Inhibition (Y) of activity ranged from approximately 50-80% of the reaction rate observed in the absence of antibody)
